Source: patent US20170306031A1 (NGM BIOPHARMACEUTICALS, published 2017)
Where a chain is given by its changes, count along the chain named.

T1: human GFRAL expressed on cells (human, UniProt Q6UXV0 20-394)
T1 sequence: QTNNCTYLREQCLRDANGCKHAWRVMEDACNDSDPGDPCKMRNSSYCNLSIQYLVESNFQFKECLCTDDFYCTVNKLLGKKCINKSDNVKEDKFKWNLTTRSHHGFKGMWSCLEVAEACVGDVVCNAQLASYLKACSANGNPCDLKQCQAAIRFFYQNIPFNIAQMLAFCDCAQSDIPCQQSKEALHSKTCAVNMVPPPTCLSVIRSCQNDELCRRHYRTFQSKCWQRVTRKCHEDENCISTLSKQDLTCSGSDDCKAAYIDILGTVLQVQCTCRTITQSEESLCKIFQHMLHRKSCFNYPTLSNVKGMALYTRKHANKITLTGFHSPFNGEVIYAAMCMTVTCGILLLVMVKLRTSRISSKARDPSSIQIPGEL

T2: mouse GFRAL expressed on cells (mouse, UniProt Q6SJE0 20-393)
T2 sequence: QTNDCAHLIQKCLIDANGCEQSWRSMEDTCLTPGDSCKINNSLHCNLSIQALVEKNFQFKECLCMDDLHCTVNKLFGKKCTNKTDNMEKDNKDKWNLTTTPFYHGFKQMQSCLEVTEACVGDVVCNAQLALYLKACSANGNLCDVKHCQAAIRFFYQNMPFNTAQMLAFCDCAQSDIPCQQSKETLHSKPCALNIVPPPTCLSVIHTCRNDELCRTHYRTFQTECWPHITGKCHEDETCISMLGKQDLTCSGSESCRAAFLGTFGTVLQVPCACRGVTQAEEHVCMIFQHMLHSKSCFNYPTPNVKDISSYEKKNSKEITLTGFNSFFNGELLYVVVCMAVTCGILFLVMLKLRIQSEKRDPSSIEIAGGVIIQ

T3: human GFRAL (analyte in Biacore assays) (human, UniProt Q6UXV0 19-351, limits assumed)
T3 construct: injected in solution over captured antibody; also called hGFRAL
T3 sequence: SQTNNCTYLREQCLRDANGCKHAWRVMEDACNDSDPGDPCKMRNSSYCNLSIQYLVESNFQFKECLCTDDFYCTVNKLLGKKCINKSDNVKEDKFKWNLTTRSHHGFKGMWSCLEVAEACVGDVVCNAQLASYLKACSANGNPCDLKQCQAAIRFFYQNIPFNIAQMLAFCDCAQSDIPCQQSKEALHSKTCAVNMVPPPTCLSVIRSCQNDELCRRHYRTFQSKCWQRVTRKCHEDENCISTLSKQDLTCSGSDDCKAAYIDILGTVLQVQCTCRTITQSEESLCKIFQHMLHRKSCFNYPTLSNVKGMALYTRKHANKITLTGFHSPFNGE

T4: mouse GFRAL (analyte in Biacore assays) (mouse, UniProt Q6SJE0 20-349, limits assumed)
T4 construct: injected in solution over captured antibody
T4 sequence: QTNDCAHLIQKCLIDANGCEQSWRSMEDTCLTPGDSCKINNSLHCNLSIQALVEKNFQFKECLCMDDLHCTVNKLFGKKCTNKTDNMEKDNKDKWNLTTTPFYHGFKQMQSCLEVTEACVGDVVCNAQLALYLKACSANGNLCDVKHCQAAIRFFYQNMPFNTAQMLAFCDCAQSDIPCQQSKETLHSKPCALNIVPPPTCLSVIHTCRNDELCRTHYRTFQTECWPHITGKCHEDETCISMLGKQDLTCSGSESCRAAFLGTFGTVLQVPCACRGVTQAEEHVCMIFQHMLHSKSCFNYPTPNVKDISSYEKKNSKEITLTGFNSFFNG

B1: antibody designated 1C1 (antibody, V domains shown)
VH: QMQLKQSGPGLVQPSQSLSITCTVSGFSLNDYGVHWIRQSPGKGLEWLGVIWSGGRTDYNAAFISRLSISKDNSKSQVFFKMSSLQPQDTAIYYCARWALYFLYGGSMDYWGQGTSVTVSS
VL: DVVLTQTPLSLPVSPGDQASISCRSSQSLVHSSGITYLHWYLQKPGQSPKLLIYKLSNRFSGVPDRFSGSGSGTDFTLKISRVEAEDLGVYFCSQSTHVPPWTFGGGTKLEIK
notes: mouse hybridoma monoclonal
B2: antibody designated 12A3 (antibody, V domains shown)
VH: QIQLVQSGPELKKPGETVKISCKASGYPFTIYGMNWVEQAPGKGLKWMGWINTYSGVPTYADDFKGRFAFSLETSASTAYLQINNLKDEDTATYFCASATGNYWGQGTTLTVSS
VL: DIQMTQSPSSLSASLGERVSLTCRASQDIGSSLNWLQQEPDGTIKRLIYATSSLDSGVPKRFSGSRSGSDYSLTISSLESEDFVDYYCLQYASSPYTFGGGTKVEIK
notes: mouse hybridoma monoclonal
B3: antibody designated 22N5 (antibody, V domains shown)
VH: QNQLVQSGPELKKPGEIVKISCKTSGYTFTDYSMHWVKKTPGKGFKWMGWINTETGEPTYADDFKGRFAFSLETSANTAHLQITNLKNEDTATYFCVKGTLNYWGQGTTLTVSS
VL: DIKMTQSPSSMYASLGERVTITCKASQDIKSYLNWFQQKPGKSPKTLIYRTKRLVDGVPSRFSGSGSGQDYSLTVSSLEYDDVGIYYCLQYVEFPLTFGDGTKLELK
notes: mouse hybridoma monoclonal
B4: antibody designated 24G2 (antibody, V domains shown)
VH: QVQLQQSGAELLKPGASVKLSCKASGYTFTTYWMHWVKQRPGQGLEWIGMIHPNSGSSNYNEKFKNKATLTVDKSSSTAYMQLSSLTSEDSAVYFCARSDYGFIPYFDYWGQGTTLTVSS
VL: DILLTQSPAILSVSPGERVSFSCRASQSIGTSIHWYQQRTNGSPRLLIKYASESISGIPSRFSGSGSGTDFTLIINSVESEDIADYYCQQSNSWPTFTFGAGTKLELK
notes: mouse hybridoma monoclonal
B5: antibody designated 2A9 (antibody, V domains shown)
VH: EVKLVESGGGLVKPGGSLKLSCAASGFTFSTYAMSWVRQTPEKRLEWVASITSGGTTYYTDSVKGRFTISRDNARNILYLQMSSLRSEDTAMYYCARDGNFYYYGMDYWGQGTSVTVSS
VL: DIVMTQSQKFMSTSVGDRVSITCKASQNVGTAVAWYQQKPGQSPKILIYSASNRFTGVPDRFTGSGSGTDFTLTISNMQSEDLADYFCQQYSSYFTFGGGTKLELK
notes: mouse hybridoma monoclonal
B6: antibody designated 25M22 (antibody, V domains shown)
VH: QVQLQQSGPDLVKPGASVKISCKASGYTFTSYWVNWMKQRPGKGLEWIGRIYPGDGDTNYNGKFKGKATLTADKSSSTAYMQLSSLTSEDSAVYFCARAYLLRLRRTGYYAMDYWGQGTSVTVSS
VL: DVVLTQTPLSLPVNIGDQASISCKSTKSLLNSDEFTYLDWYLQKPGQSPQLLIFLVSNRFSGVPDRFSGSGSGTDFTLKISRVEAEDLGVYYCFQSNYLPYTFGGGTKLEIK
notes: mouse hybridoma monoclonal
B7: antibody designated 19K19 (antibody, V domains shown)
VH: B6 VH with T28A, V34M, M37V
VL: B6 VL with F54Y
notes: mouse hybridoma monoclonal
B8: antibody designated 5A20 (antibody, V domains shown)
VH: QVQLQQSGPELMKPGASVILSCKAIGYTFTDYWIEWVKERPGHGLEWIGEILLGSDSIHFNEKFKGKATISADTSSNTAYMQLSSLTTEDSAIYYCVRQDWNWYFDVWGTGTTVTVSS
VL: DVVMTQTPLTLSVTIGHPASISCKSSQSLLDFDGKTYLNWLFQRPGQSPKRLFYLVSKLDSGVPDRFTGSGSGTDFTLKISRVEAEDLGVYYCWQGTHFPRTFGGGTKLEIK
notes: mouse hybridoma monoclonal
B9: antibody designated 8D8 (antibody, V domains shown)
VH: QVQLKESGPGLVAPSQSLSITCTVSGFSLSRYSVHWVRQPPGKGLEWLGMIWGFGSTDYNSALKSRLSITKDNSKSQFFLKMNSLQTDDTAMYYCARIHTTAGSYWGQGTLVTVSA
VL: DIVMTQSQKFMSTSIGDRVSVTCKASQNVGTNVAWYQQKPGQSPKALVYSTSYRYSGVPDRFTGSGSGTDFTLTISNVQSEDLAEYFCHQYNSYPLTFGAGTKLELK
notes: mouse hybridoma monoclonal
B10: antibody designated 2B3 (antibody, V domains shown)
VH: EVKLVESGGGLVQPGGSLKLSCAASGFTFSDYFMFWVRQTPEKRLEWVAYISNDGDSTYYPDTVQGRFTISRDNAKNTLYLQMSRLRSEDTAMYYCTRQGAQATLDYWGQGTTLTVSS
VL: QIVLTQSPAIMSASLGEEITLTCSASSSVFYMHWYQQKSGTSPKLLIYSTSNLASGIPSRFSGSGSGTFYSLTISSVEAEDAADYYCHQWSSTFGGGTKLEIK
B11: antibody designated 2B8 (antibody, V domains shown)
VH: QIQLVQSGPELKKPGETVKISCKASGYTFTTYGMSWVKQAPGKIFKWMGWINTYSGVPTFVDDFRGRFAFSLETSASTAYLQIGNLKNEDTATYFCARRSSYYPYWYFDVWGTGTTVTVSS
VL: DIQMTQSPASLSASVGETVTITCRPSENIYSYLTWFQQEQGKSPQLLVYNAQTLAEGVPSRFSGSGSGTHFSLKINSLQPEDFGTYYCQHYYGYPFTFGSGTKLEIK
notes: mouse hybridoma monoclonal

Biological target: T1, human GFRAL expressed on cells
Assay: cell-based or functional assay

IC50, ELK1-luciferase reporter (hGFRAL/hRET)	Binder
8.64 nM	B1
4.99 nM	B2
7.74 nM	B3
18.9 nM	B4
3.71 nM	B5
2.89 nM	B6
3.88 nM	B7
3.19 nM	B8
2.11 nM	B9
7.12 nM	B10
1.92 nM	B11

Biological target: T2, mouse GFRAL expressed on cells
Assay: cell-based or functional assay

IC50, ELK1-luciferase reporter (mGFRAL/mRET)	Binder
1.19 nM	B1
0.933 nM	B2
2.6 nM	B3
8.32 nM	B4
7.87 nM	B5
1.11 nM	B6
0.895 nM	B7
0.6 nM	B8
1.42 nM	B9
7.76 nM	B10
2.45 nM	B11

Biological target: T1, human GFRAL expressed on cells
Assay: cell-based or functional assay
Remark: another data set of the same source

IC50, ERK phosphorylation in U2OS hGFRAL/hRET cells	Binder
0.61 nM	B1
0.54 nM	B2
0.9 nM	B3
1.86 nM	B4
0.94 nM	B5
0.53 nM	B6
0.61 nM	B7
1.8 nM	B8
0.63 nM	B9
1.48 nM	B10
0.22 nM	B11

Biological target: T3, human GFRAL (analyte in Biacore assays)
Assay: Biacore SPR, antibody captured, GFRAL injected
Experimental: (§1) In addition, the binding affinity of antibodies to human and mouse GFRAL were measured. For example, antibodies were rank ordered based on their binding affinity to human GFRAL and mouse GFRAL by low resolution KD measurement by Biacore. Briefly, an anti-mouse Fc antibody (Sigma-Aldrich, St. Louis, Mo.) was immobilized on all four flow cells of a CM5 chip using amine coupling reagents (GE Healthcare LifeSciences, Piscataway, N.J.). Purified antibodies were captured (˜100 RUs) on flow cells 2, 3 and 4 using flow cell 1 as a reference. This was followed by injection of human or mouse GFRAL (25 nM in PBS-P buffer) at a flow rate of 70 μL/m in and monitoring the binding kinetics at 25° C.
(§2) Binding affinity measurements were also made in additional Biacore based assays. For example, equilibrium dissociation constant (KD) measurements were carried out with purified antibodies to evaluate their binding to human GFRAL or mouse GFRAL. As mentioned above, anti-mouse Fc antibody (Sigma-Aldrich, St. Louis, Mo.) was immobilized on all four flow cells of a CM5 chip using amine coupling reagents (GE Healthcare LifeSciences, Piscataway, N.J.). Purified antibodies were captured (˜100 RUs) on flow cells 2, 3 and 4 using flow cell 1 as a reference. This was followed by injection of human or mouse GFRAL in PBS-P buffer) at a flow rate of 70 μL/min and the binding kinetics were evaluated at 25° C.

Kd	koff	Binder
< 0.1 nM	–	B1
< 0.1 nM	~1e-05 s⁻¹	B2
0.21 nM	0.000132 s⁻¹	B3
1.4 nM	0.000696 s⁻¹	B4
0.25 nM	0.000153 s⁻¹	B5
< 0.1 nM	~1e-05 s⁻¹	B6
0.21 nM	0.000135 s⁻¹	B7
0.081 nM	3.32e-05 s⁻¹	B8
0.46 nM	0.000124 s⁻¹	B9
0.73 nM	–	B11

Biological target: T4, mouse GFRAL (analyte in Biacore assays)
Assay: Biacore SPR, antibody captured, GFRAL injected
Experimental: as §1, §2

Kd	koff	Binder
3.68 nM	0.0025 s⁻¹	B1
5.7 nM	0.00216 s⁻¹	B2
3.47 nM	0.000943 s⁻¹	B3
5.02 nM	0.00173 s⁻¹	B4
3.6 nM	0.0029 s⁻¹	B5
4.2 nM	0.0001 s⁻¹	B6
4.7 nM	0.0034 s⁻¹	B7
< 0.1 nM	0.0004 s⁻¹	B8
8.17 nM	0.00281 s⁻¹	B9
3.76 nM	0.013 s⁻¹	B11
